Measured values: the PETadex activity labels

What follows are proteins tested on BHET. Conditions: 120 h; part of the chain shown.

Row | Protein | plate clearing
1 | unnamed (protein) MNFPRASRLMQAAVLGGLMAVSAAATAQTNPYARGPNPTAASLEASAGPFTVRSFTVSRPSGYGAGTVYYPTNAGGTVGAIAIVPGYTARQSSIKWWGPRLASHGFVVITIDTNSTLDQPSSRSSQQMAALRQVASLNGTSSSPIYGKVDTARMGVMGWSMGGGGSLISAANNPSLKAAAPQAPWDSSTNFSSVTVPTLIFACENDSIAPVNSSALPIYDSMSRNAKQFLEINGGSHSCANSGNSNQALIGKKGVAWMKRFMDNDTRYSTFACENPNSTRVSDFRTANCS | clears the plate (z > 3 vs empty vector)
2 | unnamed (protein) MTVCKLRMFTAQKHPVTNKIFGGSSMSSRKQDLRLRQLLYCLLLSTALGGAVVHAQTAPATIAQEAFNNGFGIFTAAGSATANGQAVLAGTFGGTDGSITSSPISTQGFSNITVSFDRTTVGLDNGEAGVAEFSVAGGAFTAIESAQTASGRMSFALAASAANQAQLRLRFRVVASRANETYSVDNVLVQGVAAGAQPPPPDPQPTNNPFQRGPTPSAATLEAAQGPFAVATTTVPNPSGFGAGTIYFPTSTTEGPFAAVSIAPGFSERQANVNWWGPRLASNGFVVVVIDTNSTSDAPASRATQLVAALRQVVTLSGTSGSPVFNKVDGNRLGVMGHSLGGGGTLIAAQNNPTLKAAIPFAPFNNDTNFSSVVVPTLIIACENDNVAPVADHASPFYNSFAASLDKAFLEIAGGSHSCANSGNNNMPILGKYGVSWMKLFMDNDTRYSPFLCGAPHQADLSGTQISEYRESCP | clears the plate (z > 3 vs empty vector)
3 | unnamed (protein) MLALRTSFPRVLTRLLAASLATGLVAQAQAAGHERGPAPTAASLEAEAGPFQVASTVLGAPVGYKGGTVFYPKGPGPFALVAFAPGFIETQSWNAWWAKYLASHGFVVVNIDTKSTLAFPPARQREQLAALKDVIQRSHTRGTPFYGLVDATRLGAMGHSMGGGATLELARDTPHIKAIVPMAPFQTTGTDYSRLTVPTLILTCKGDIVASAKSHAAPIYDSLPSSLDKAHVELAGGGGHPCTTSLGTSAEVKKVAAKYGVSWLKRFLDEDTRYSPFLCGAEHEASLKTSVVSAYQGNCP | not clears the plate
4 | unnamed (protein) MNNNKMPKSALSLLVAGALFLSATAMAANPVPPPTNPGNPDSGYQRGPNPSVSMLEARNGPFSVRTTNVSSFTSGFGGGTIHYPTNTTGTMAAIVVIPGFVSAESSIEWWGPKLASHGFVVMTIDTNSGFDQPPSRARQINAALDYLIDQNNARGSAVSGMIDPNRLGVVGWSMGGGGSLRVAAEGRLDAVIPLAPWDTTNFRSVNTPALIFACESDTIAPVRSHASPFYNQIPASTPKAFVEISRGSHYCANGGGSNDAVLSRLGVSWMKVHLDKDQRYQQFICGPRHESDRSISEYRGN | not clears the plate
5 | unnamed (protein) MANPYERGPNPTDALLEASSGPFSVSEENVSRLSASGFGGGTIYYPRENNTYGAVAISPGYTGTEASIAWLGERIASHGFVVITIDTITTLDQPDSRAEQLNAALNHMINRASSTVRSRIDSSRLAVMGHSMGGGGTLRLASQRPDLKAAIPLTPWHLNKNWSSVTVPTLIIGADLDTIAPVATHAKPFYNSLPSSISKAYLELDGATHFAPNIPNKIIGKYSVAWLKRFVDNDTRYTQFLCPGPRDGLFGEVEEYRSTCPF | clears the plate (z > 3 vs empty vector)
6 | unnamed (protein) MDKTRLFSTLSMVTSALLFSISVSAGKPSKGGDEPAPEPAACISDTDITSAALSSTGSSGPFTVSTKDVSRWSASGFGGGTIHYPTGAGDCGPIGGIAVVPGYVSYEASIKWWGPRLASWGFVVITINTNSIYDQPDSRATQLSAALDHIINDSTVGSMVDSSRLGAIGWSMGGGGALKLATDRSEVKAIIPQAPWYSGRYGRMKTPAFMIGCENDFVAPTSNHVDVFYANASGPKMKIEVNNGDHSCANSGYNETLLGKPGIAWMQRYIHGDTRFNQFLCGNENYGSSNSVSAYDFESC | not clears the plate

What follows are proteins tested on p-NP-C6. Conditions: pH 8.5; 60 °C.

Row | Protein | Km | kcat | kcat/Km
7 | unnamed (protein) MERTVVETRYGRLRGEMNEGVFVWKGIPYAKAPVGERRFLPPEPPDAWDGVREATSFGPVVMQPSDPIFSGLLGRMSEAPSEDGLYLNIWSPAADGKKRPVLFWIHGGAFLFGSGSSPWYDGTAFAKHGDVVVVTINYRMNVFGFLHLGDSFGEAYAQAGNLGILDQVAALRWVKENIAAFGGDPDNITIFGESAGAASVGVLLSLPEASGLFRRAMLQSGSGSLLLRSPETAMAMTERILDKAGIRPGDRERLLSIPAEELLRAALSLGPGVMYGPVVDGRVLRRHPIEALRYGAASGIPILIGVTKDEYNLFTLTDPSWTKLGEKELLDRINREVGPVPEEAIRYYKETAEPSAPTWQTWLRIMTYRVFVEGMLRTADAQAAQGADVYMYRFDYETPVFGGQLKACHALELPFVFHNLHQPGVANFVGNRPEREAIANEMHYAWLSFARTGDPNGAHLPEAWPAYTNERKAAFVFSAASHVEDDPFGRERAAWQGR | 0.5 µM | 39.8 s⁻¹ | 7.95e+07 M⁻¹ s⁻¹

Same assay, conditions: pH 8.5; 60 °C; part of the chain shown

Row | Protein | Km | kcat | kcat/Km
8 | unnamed (protein) MKIVPPKPFFFEAGERAVLLLHGFTGNSADVRMLGRFLESKGYTCHAPIYKGHGVPPEELVHTGPDDWWQDVMNGYEFLKNKGYEKIAVAGLSLGGVFSLKLGYTVPIEGIVTMCAPMYIKSEETMYEGVLEYAREYKKREGKSEEQIEQEMEKFKQTPMKTLKALQELIADVRDHLDLIYAPTFVVQARHDEMINPDSANIIYNEIESPVKQIKWYEQSGHVITLDQEKDQLHEDIYAFLESLDW | 2.16 µM | 38 s⁻¹ | 1.76e+07 M⁻¹ s⁻¹
